Source: PMC5727443

Biological target: hypoxia-inducible factor 2α (HIF-2α), wild type (UniProt Q99814)
Test: co-IP

Sequence of UniProt Q99814 (Q99814 whole entry): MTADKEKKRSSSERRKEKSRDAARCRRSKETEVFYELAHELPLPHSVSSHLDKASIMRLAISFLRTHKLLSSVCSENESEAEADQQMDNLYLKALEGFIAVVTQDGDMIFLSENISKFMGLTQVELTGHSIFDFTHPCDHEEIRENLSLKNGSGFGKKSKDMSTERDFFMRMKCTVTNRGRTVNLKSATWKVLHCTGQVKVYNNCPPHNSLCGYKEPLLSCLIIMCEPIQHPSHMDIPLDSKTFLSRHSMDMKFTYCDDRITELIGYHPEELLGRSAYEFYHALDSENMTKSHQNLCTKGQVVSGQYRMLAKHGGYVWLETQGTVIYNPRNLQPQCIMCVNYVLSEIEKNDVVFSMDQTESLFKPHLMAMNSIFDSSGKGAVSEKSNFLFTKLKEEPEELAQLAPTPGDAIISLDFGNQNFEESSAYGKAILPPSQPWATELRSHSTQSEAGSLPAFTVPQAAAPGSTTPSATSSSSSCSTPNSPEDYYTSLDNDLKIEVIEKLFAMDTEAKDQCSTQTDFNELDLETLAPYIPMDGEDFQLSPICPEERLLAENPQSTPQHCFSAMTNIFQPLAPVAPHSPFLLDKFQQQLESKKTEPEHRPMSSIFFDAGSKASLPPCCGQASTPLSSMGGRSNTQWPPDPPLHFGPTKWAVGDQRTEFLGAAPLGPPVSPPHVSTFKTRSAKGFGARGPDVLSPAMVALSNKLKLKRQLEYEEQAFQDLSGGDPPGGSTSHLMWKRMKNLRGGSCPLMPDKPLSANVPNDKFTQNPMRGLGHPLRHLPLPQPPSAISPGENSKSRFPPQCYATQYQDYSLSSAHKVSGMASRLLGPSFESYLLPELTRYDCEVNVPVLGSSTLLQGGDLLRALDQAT

mouse Tet1 (wild type, whole) (enzyme)
PHD2 bound to HIF-2α with Tet1 co-expressed, fold of without Tet1: 0.47 fold
pVHL bound to HIF-2α with Tet1 over-expressed, fold of without Tet1: 0.7 fold
